The text below walks through data of the supplement of paper PMC9170038.

The data set relates to MS2 coat protein. The experiment in a line: apparent KD of MS2 coat protein; designed switch direction (-1 OFF switch, 1 ON switch): 1; higher = weaker reporter binding. The procedure, abridged: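 Designed RNA switches were transcribed on Illumina chips by stalled E. coli RNA polymerase and titrated with SNAP-549-labelled MS2 coat protein from 0.7 or 1.5 nM, doubling to 3 µM. Step length ran from 0.8–1.5 h at the lowest concentration to 10–20 min at the highest. The apparent KD is the median over clusters for each design, from curve-fitted normalised cluster fluorescence.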

Setting [1] is: input ligand: microRNA oligo, concentration not stated.
Setting [2] is: Eterna round: R95, input ligand: FMN 200 uM.
Where [3] appears, read: Eterna round: R95, input ligand: microRNA oligo, concentration not stated.
Where [4] appears, read: Eterna round: R95, input ligand: none.

On to “AUAUGAGGAGCAGGAUAUGCGGAGAAGAAAGAAGCAGAAGGGCUCAUGGGACGACAUGAGGAUCACCCAUGUACUCCGCGAUGA [AK SSNG1-V2-5] (Eterna round: R96, puzzle: Same State NG 1)”, for which the “apparent KD of MS2 coat protein” value came to 103 nM (input ligand: FMN 200 uM), 520 nM under setting [1] and 1350 nM (input ligand: none).
In the same order, the values of “AUGCCAAAUGGAGGAUAUGGAGCCUUAUUGGCUCCAGAAGGUCAAACAUGAGGAUCACCCAUGUGGCAGUGGUCUAAUGACCAC [Eli NG1ss - 45] (Eterna round: R96, puzzle: Same State NG 1)” are 110 nM, 192 nM and 368 nM.
For the sequence “AUGGUGCAGGUACAGGAUAUGUUGCUCGUAACAUGAGGAUCACCCAUGUACCUAUGAGAUUAAAUGCAGAAGGGUGCACACCACA [Mat - Same State 2 - Mod of UCT - D88] (puzzle: Same State 2)”, the “apparent KD of MS2 coat protein” value runs as follows: under setting [2], 40.8 nM; under setting [3], 325 nM; under setting [4], 283 nM.
Turning to “AUUAAACAUGAGGAUCACCCAUGUCAACAAAGUCGAGGAUAUGGGCAAAUAAAAUAAGAACCAGAAGGCGUAUAAU [salish99_ss1_r3_077] (puzzle: Same State 1)”, the “apparent KD of MS2 coat protein” value under setting [2] amounted to 75.9 nM, the “apparent KD of MS2 coat protein” value under setting [3] was 363 nM and the “apparent KD of MS2 coat protein” value under setting [4] was determined as 636 nM.
In the same order, the values of “AUUAAACAUGAGGAUCACCCAUGUCAACAAAGUCGAGGAUAUGGGCAAAUAAAAUAAGAUCCAGAAGGCGAAUAAU [salish99_ss1_r3_067] (puzzle: Same State 1)” are 55.7 nM, 16.8 nM and 19.5 nM.
As for “AUUAAACAUGAGGAUCACCCAUGUCAACAAAGUCGAGGAUAUGGGCAAAUAAAAUAUGAACCAGAAGGCGAAUAAU [salish99_ss1_r3_064] (Eterna round: R96, puzzle: Same State 1)”, the “apparent KD of MS2 coat protein” value is, setting by setting: (input ligand: FMN 200 uM) 32.9 nM; under setting [1], 208 nM; (input ligand: none) 263 nM.
“AUUAAACAUGAGGAUCACCCAUGUCAACAAAGUCGAGGAUAUGGGCAAAUAAAAUAUGAACCAGAAGGCGAAUAAU [salish99_ss1_r3_064] (puzzle: Same State 1)”: the “apparent KD of MS2 coat protein” value under setting [2] turned out to be 32.1 nM, the “apparent KD of MS2 coat protein” value under setting [3] was 220 nM and the “apparent KD of MS2 coat protein” value under setting [4] came out at 412 nM.
In the same order, the values of “AUUAAACAUGAGGAUCACCCAUGUCAACAAAGUCGAGGAUAUGGGCAAAUAAUAUAAGAACCAGAAGGCGAAUAAU [salish99_ss1_r3_058] (puzzle: Same State 1)” are 32.1 nM, 440 nM and 275 nM.
Consider “AUUAAUAAUGCAGGAUAUGAUUAACAUGAGGAUCACCCAUGUGGUGUUGUGAGUAAGGAGAGUGAUCAGAAGGGCAUUUUUUUU [JMF's solution 27] (Eterna round: R96, puzzle: Same State NG 2)”, for which the “apparent KD of MS2 coat protein” value is, setting by setting: (input ligand: FMN 200 uM) 552 nM; under setting [1], 374 nM; (input ligand: none) 385 nM.
In the same order, the values of “AUUACGAGCGUAGGAUAUGGGAAAGGAAGUGUACCAGAAGGACGAAUACAGCGUCCGGACAUGAGGAUCACCCAUGUAGGACGC [PowerStrip SSNG 1.19] (Eterna round: R96, puzzle: Same State NG 1)” are 11.5 nM, 21.8 nM and 26.1 nM.
Consider “AUUAUGUAUGCAGGAUAUGAUUAACAUGAGGAUCACCCAUGUGGUGUUGUGAGUAAGGAGAGUGAUCAGAAGGGCAUUUUUUUU [JMF's solution 64] (Eterna round: R96, puzzle: Same State NG 2)”, for which the “apparent KD of MS2 coat protein” value was found to be 555 nM (input ligand: FMN 200 uM), 333 nM under setting [1] and 381 nM (input ligand: none).
Consider “AUUAUUUCAUGAGGAUAUGGCACCUUAUUGGUGCCAGAAGGCAUGUCUAUAAGACAUGAGGAUCACCCAUGUUUAAAUUAUAUA [Eli NG1ss - 90] (Eterna round: R96, puzzle: Same State NG 1)”, for which the “apparent KD of MS2 coat protein” value worked out at 24.1 nM (input ligand: FMN 200 uM), 164 nM under setting [1] and 181 nM (input ligand: none).
In the same order, the values of “AUUGCUAGCACAGGAUAUCAUGCGAAAAUUGCGUGAGAAGGGUGGACUCUGUCAUUCACGGAGGACAUGAGGAUCACCCAUGUC [SameState NG1 #80] (Eterna round: R96, puzzle: Same State NG 1)” are 193 nM, 31.9 nM and 62.3 nM.
Turning to “AUUGCUUACGCAGGAUAUGAUGCGAAAAUUGCGUCAGAAGGGUGAAGUAACUCAUUGCAACAGGACAUGAGGAUCACCCAUGUC [SameState NG1 #89] (Eterna round: R96, puzzle: Same State NG 1)”, the “apparent KD of MS2 coat protein” value (input ligand: FMN 200 uM) came to 105 nM, the “apparent KD of MS2 coat protein” value under setting [1] stood at 250 nM and the “apparent KD of MS2 coat protein” value (input ligand: none) worked out at 681 nM.
With “AUUGGGUAACGAGGAUAUCGUUUUUGUUUUCUUCGAGAAGGCGUUAUAGUUUAUUUCUAUUGUUACAUGAGGAUCACCCAUGUU [JR_SSNG1_Sub054] (Eterna round: R96, puzzle: Same State NG 1)”, the “apparent KD of MS2 coat protein” value by setting is: (input ligand: FMN 200 uM) 15.2 nM; under setting [1], 16.5 nM; (input ligand: none) 24.1 nM.
Regarding “AUUUAACAAGCUUUUUGCUCGUCUUAUAAACAUGAGGAUCACCCAUGUAAUAGCGUGAGAGUAAAUUUAUAAAUAAU [JMF 88] (puzzle: Sensor for hsa-mir-208a)”, the “apparent KD of MS2 coat protein” value runs as follows: under setting [2], 15.7 nM; under setting [3], 42.5 nM; under setting [4], 14.7 nM.
Regarding “AUUUCUAGCAUAGGAUAUCAUGCGAAAAUUGCGUGAGAAGGGUGGACGCUGUCAUUCACGGAAGACAUGAGGAUCACCCAUGUC [SameState NG1 #75] (Eterna round: R96, puzzle: Same State NG 1)”, the “apparent KD of MS2 coat protein” value amounted to 76.6 nM (input ligand: FMN 200 uM), 67.6 nM under setting [1] and 87.2 nM (input ligand: none).
In the same order, the values of “AUUUUUAAUGCAGGAUAUGAUUAACAUGAGGAUCACCCAUGUGGUGUUGUGAGUAAGGAGAGUGAUCAGAAGGGCAUUUCUUUU [JMF's solution 82] (Eterna round: R96, puzzle: Same State NG 2)” are 593 nM, 337 nM and 540 nM.
In the same order, the values of “CAGAGCCCAUGGGCCUGACAUGAGGAUCACCCAUGUGGCUUUGAGGAUAUAAGCGGAAACAGCGCUUAGAAGGCGAAGCCUAAC [Rearisve] (Eterna round: R96, puzzle: Same State NG 3)” are 157 nM, 14.1 nM and 41.9 nM.
As for “CAGCGCUGUCGAGAGGAUAUGCGGUGAUGGACAUGAGGAUCACCCAUGUUAGCGACAGCAUCACGGCAGAAGGCUCUAUCGCUGC [Soteed Omei mod 29] (puzzle: Same State 2)”, the “apparent KD of MS2 coat protein” value came out at 24.2 nM under setting [2], 39.5 nM under setting [3] and 48.9 nM under setting [4].
Take “CAGCUCGUGUGAGGAUAUGCCGCCGUUUCGGCUGCAGAAGGUGCUACGUUACAUGAGGAUCACCCAUGUCUCUGUUGUUUCGUC [salish99_SSNG1_r04_962] (Eterna round: R96, puzzle: Same State NG 1)”: the “apparent KD of MS2 coat protein” value is 28.6 nM (input ligand: FMN 200 uM), 19.1 nM under setting [1] and 31.8 nM (input ligand: none).
Turning to “CAGUGCUGUUGAGAGGAUAUGCGGCGACGGACAUGAGGAUCACCCAUGUUAGCGACAGCGUUGCGGCAGAAGGCUCUGCCCGCUG [Soteed Omei mod 50] (puzzle: Same State 2)”, the “apparent KD of MS2 coat protein” value under setting [3] came out at 15.3 nM.
Turning to “CCAUAACAGUGAGGAUAUCGUUGCGAUAAGUGACGAGAAGGCAUUCAUGUGAAAUAAACAUACAUGAGGAUCACCCAUGUUGUA [Omei SS(NG)1 B] (Eterna round: R96, puzzle: Same State NG 1)”, the “apparent KD of MS2 coat protein” value is 18.2 nM (input ligand: FMN 200 uM), 17.1 nM under setting [1] and 20.6 nM (input ligand: none).
Consider “CCGGUUAAUGGAGGAUAUGGAGCCUUAUUGGCUCCAGAAGGCUAAACAUGAGGAUCACCCAUGUUACCGGCGGUCAAUAGACCG [Eli NG1ss - 61] (Eterna round: R96, puzzle: Same State NG 1)”, for which the “apparent KD of MS2 coat protein” value is, setting by setting: (input ligand: FMN 200 uM) 11.5 nM; under setting [1], 18 nM; (input ligand: none) 23 nM.
As for “CCGUAGAUGGGACAGGAUAUGACUGUCGUCACAUGAGGAUCACCCAUGUCCCGGCAAUGCCACCGUUAGAAGGGUCCCGUCUCGG [Tiquiser] (puzzle: Same State 2)”, the “apparent KD of MS2 coat protein” value under setting [3] was 12.2 nM.
For “CGACUAAAGUCACAGGAUAUACGCCGUACUACAUGAGGAUCACCCAUGUUCGGGACAGUCGCGGUGUAGAAGGGUGUGGGUCAAC [Errabeed] (puzzle: Same State 2)”, the “apparent KD of MS2 coat protein” value stood at 17.6 nM under setting [2], 31.2 nM under setting [3] and 38.9 nM under setting [4].
Turning to “CGCAACGGCUGAGGAUAUGUCAACACGGGACGGGCAGAAGGUAGCAACCACCCACAUGAGGAUCACCCAUGUAUCCAAAUUCAC [Eternabot solution 38] (Eterna round: R96, puzzle: Same State NG 1)”, the “apparent KD of MS2 coat protein” value by setting is: (input ligand: FMN 200 uM) 48.9 nM; under setting [1], 41.5 nM; (input ligand: none) 42.3 nM.
For the sequence “CGCCAGAGAGCAGGAUAUGGGCCACAGCCUAAGGGCUGUGAACUCACAUGAGGAUCACCCAUGUCCCAGAAGGGCUCCUAGCUA [Erzabe] (Eterna round: R96, puzzle: Same State NG 2)”, the “apparent KD of MS2 coat protein” value reads like this: (input ligand: FMN 200 uM) 203 nM; under setting [1], 701 nM; (input ligand: none) 1920 nM.
